The values that follow come from US6638907 (BIOSTRATUM, dated 2003).

Assay [1] concerns the target integrin α2 on HT-1080 cells (human) (UniProt P17301). Nature of the assay: cell-based or functional assay.
Assay [2] has as its target integrin α6β1 on bovine adrenal microvascular endothelial (BCE) cells (bovine) (UniProt P53712). Nature of the assay: cell-based or functional assay.
Assay [3] has as its target α6-subunit containing integrins on mouse IBE (Immortomouse brain capillary endothelial) cells. Briefly: cell-based or functional assay.
In assay [4] the target is T1, disulfide-linked β1/γ1 dimer of r-laminin 8 (mouse β1, human γ1) (mouse; human, UniProt P02469 22-1786; P11047 34-1609).
T1 construct: mature; also called covalently associated dimers; the dimers
Briefly: non-reducing SDS-PAGE of anti-FLAG purified r-laminin 8. The source says: The r-laminin 8 bound to anti-FLAG M2 matrix with high specificity. […] (FIG. 1) Under non-reducing conditions, the purified protein hardly entered the gel, which was to be expected as the predicted molecular weight for the mature trimer is at least 570 kD. A minor fraction of the purified trimer appeared as non-covalently associated (see discussion). In this fraction, the β1 and γ1 chains appeared as covalently associated dimers, whereas the α4 chain was non-covalently associated. Under reducing conditions, the protein appeared as a broad band at around 200 kD, which reacted on Western blots with α4, EHS, γ1, and anti-FLAG antibodies. The predicted molecular weights for mature α4, β1, and γ1 polypeptides are 200, 195, and 174 kD respectively. Laminins are heavily glycosylated, which may account for the slight discrepancy in molecular weight observed in SDS-PAGE.

Sequence of integrin α6β1 on bovine adrenal microvascular endothelial (BCE) cells (bovine) (P53712 21-798): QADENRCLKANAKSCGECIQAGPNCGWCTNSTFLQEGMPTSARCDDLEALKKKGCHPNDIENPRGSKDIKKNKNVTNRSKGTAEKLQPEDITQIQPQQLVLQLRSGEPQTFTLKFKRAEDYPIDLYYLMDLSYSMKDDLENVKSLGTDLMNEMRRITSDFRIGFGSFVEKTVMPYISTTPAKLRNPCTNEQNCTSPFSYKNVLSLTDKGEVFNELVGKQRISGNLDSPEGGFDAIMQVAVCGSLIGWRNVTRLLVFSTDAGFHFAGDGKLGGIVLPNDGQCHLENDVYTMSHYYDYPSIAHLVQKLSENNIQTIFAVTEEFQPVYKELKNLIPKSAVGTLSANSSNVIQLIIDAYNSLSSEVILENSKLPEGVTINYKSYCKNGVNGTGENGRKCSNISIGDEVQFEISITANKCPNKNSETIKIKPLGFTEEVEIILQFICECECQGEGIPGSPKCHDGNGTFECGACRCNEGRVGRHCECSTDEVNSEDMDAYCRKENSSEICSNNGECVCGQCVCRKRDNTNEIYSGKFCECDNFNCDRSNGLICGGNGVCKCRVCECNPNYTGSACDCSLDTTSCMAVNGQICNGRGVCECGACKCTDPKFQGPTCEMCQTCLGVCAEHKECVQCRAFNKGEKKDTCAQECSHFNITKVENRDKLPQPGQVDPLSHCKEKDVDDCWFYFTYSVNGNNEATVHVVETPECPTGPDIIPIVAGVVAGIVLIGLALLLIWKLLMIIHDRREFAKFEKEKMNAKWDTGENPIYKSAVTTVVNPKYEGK
Sequence of integrin α2 on HT-1080 cells (human) (P17301 30-1181): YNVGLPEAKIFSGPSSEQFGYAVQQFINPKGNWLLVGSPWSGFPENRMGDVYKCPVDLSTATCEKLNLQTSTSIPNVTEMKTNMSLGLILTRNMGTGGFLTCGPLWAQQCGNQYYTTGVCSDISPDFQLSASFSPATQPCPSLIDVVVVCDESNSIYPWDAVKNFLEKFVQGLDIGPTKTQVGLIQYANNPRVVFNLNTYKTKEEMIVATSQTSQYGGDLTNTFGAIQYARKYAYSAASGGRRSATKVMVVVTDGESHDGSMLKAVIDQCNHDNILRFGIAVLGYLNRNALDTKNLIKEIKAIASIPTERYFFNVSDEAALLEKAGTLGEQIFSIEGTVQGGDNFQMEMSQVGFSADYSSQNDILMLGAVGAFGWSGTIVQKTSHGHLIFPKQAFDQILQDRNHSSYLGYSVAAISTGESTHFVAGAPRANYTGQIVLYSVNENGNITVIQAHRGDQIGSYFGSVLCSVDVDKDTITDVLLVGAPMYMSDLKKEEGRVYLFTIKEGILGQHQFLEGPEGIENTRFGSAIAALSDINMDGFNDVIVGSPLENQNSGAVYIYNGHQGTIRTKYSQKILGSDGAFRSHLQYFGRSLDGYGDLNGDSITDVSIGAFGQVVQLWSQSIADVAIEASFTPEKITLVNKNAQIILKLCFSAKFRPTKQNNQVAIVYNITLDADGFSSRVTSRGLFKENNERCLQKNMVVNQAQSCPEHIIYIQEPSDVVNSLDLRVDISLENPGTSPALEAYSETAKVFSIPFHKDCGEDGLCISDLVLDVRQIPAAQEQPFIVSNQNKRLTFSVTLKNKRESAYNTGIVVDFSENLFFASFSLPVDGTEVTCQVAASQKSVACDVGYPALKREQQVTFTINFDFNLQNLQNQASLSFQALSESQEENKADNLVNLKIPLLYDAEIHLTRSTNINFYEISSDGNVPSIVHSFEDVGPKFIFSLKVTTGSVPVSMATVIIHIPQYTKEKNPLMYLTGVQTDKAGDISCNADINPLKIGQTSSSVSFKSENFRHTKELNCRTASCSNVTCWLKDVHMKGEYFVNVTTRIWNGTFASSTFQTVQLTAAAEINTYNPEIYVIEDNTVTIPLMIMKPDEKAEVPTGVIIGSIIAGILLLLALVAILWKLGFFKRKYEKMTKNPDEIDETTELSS

“collagen type IV from EHS-tumor (from UniProt P02463 28-1669; P08122 26-1707)” registered an HT-1080 cell adhesion to Type IV collagen with anti-integrin α2 mAb, percent of control in assay [1] of 50%.

For “recombinant laminin 8 (human α4 chain with C-terminal FLAG epitope, mouse β1 chain, human γ1 chain) (from UniProt Q16363 25-1823; P02469 22-1786; P11047 34-1609)”, the BCE cell adhesion to coated r-laminin 8 with anti-β1 mAb AIIB2, percent blocked in assay [2] was 70%. Besides, the IBE cell adhesion to coated r-laminin 8 with anti-α6 mAb, percent blocked in assay [3] was 60%.

B1: human laminin α4 chain containing a C-terminal FLAG epitope (other)
chain: ASGDDNAFPFDIEGSSAVGRQDPPETSEPRVALGRLPPAAEKCNAGFFHTLSGECVPCDCNGNSNECLDGSGYCVHCQRNTTGEHCEKCLDGYIGDSIRGAPQFCQPCPCPLPHLANFPESCYRKNGAVRCICNENYAGPNCERCAPGYYGNPFLIGSTCKKCDCSGNSDPNLIFEDCDEVTGQCRNCLRNTTGFKCERCAPGYYGDARIAKNCAVCNCGGGPCDSVTGECLEEGFEPPTGCDKCVWDLTDDLRLAALSIEEGKSGVLSVSSGAAAHRHVNEINATIYLLKTKLSERENQYALRKIQINNAENTMKSLLSDVEELVEKENQASRKGQLVQKESMDTINHASQLVEQAHDMRDKIQEINNKMLYYGEEHELSPKEISEKLVLAQKMLEEIRSRQPFFTQRELVDEEADEAYELLSQAESWQRLHNETRTLFPVVLEQLDDYNAKLSDLQEALDQALNYVRDAEDMNRATAARQRDHEKQQERVREQMEVVNMSLSTSADSLTTPRLTLSELDDIIKNASGIYAEIDGAKSELQVKLSNLSNLSHDLVQEAIDHAQDLQQEANELSRKLHSSDMNGLVQKALDASNVYENIVNYVSEANETAEFALNTTDRIYDAVSGIDTQIIYHKDESENLLNQARELQAKAESSSDEAVADTSRRVGGALARKSALKTRLSDAVKQLQAAERGDAQQRLGQSRLITEEANRTTMEVQQATAPMANNLTNWSQNLQHFDSSAYNTAVNSARDAVRNLTEVVPQLLDQLRTVEQKRPASNVSASIQRIRELIAQTRSVASKIQVSMMFDGQSAVEVHSRTSMDDLKAFTSLSLYMKPPVKRPELTETADQFILYLGSKNAKKEYMGLAIKNDNLVYVYNLGTKDVEIPLDSKPVSSWPAYFSIVKIERVGKHGKVFLTVPSLSSTAEEKFIKKGEFSGDDSLLDLDPEDTVFYVGGVPSNFKLPTSLNLPGFVGCLELATLNNDVISLYNFKHIYNMDPSTSVPCARDKLAFTQSRAASYFFDGSGYAVVRDIPRRGKFGQVTRFDIEVRTPADNGLILLMVNGSMFFRLEMRNGYLHVFYDFGFSSGRVHLEDTLKKAQINDAKYHEISIIYHNDKKMILVVDRRHVKSMDNEKMKIPFTDIYIGGAPPEILQSRALRAHLPLDINFRGCMKGFQFQKKDFNLLEQTETLGVGYGCPEDSLISRRAYFNGQSFIASIQKISFFDGFEGGFNFRTLQPNGLLFYYASGSDVFSISLDNGTVIMDVKGIKVQSVDKQYNDGLSHFVISSVSPTRYELIVDKSRVGSKNPTKGKIEQTQASEKKFYFGGSPISAQYANFTGCISNAYFTRVDRDVEVEDFQRYTEKVHTSLYECPIESSPLFLLHKKGKNLSKPKASQNKKGGKSKDAPSWDPVALKLPERNTPRNSHCHLSNSPRAIEHAYQYGGTANSRQEFEHLKGDFGAKSQFSIRLRTRSSHGMIFYVSDQEENDFMTLFLAHGRLVYMFNVGHKKLKIRSQEKYNDGLWHDVIFIRERSSGRLVIDGLRVLEESLPPTEATWKIKGPIYLGGVAPGKAVKNVQINSIYSFSGCLSNLQLNGASITSASQTFSVTPCFEGPMETGTYFSTEGGYVVLDESFNIGLKFEIAFEVRPRSSSGTLVHGHSVNGEYLNVHMKNGQVIVKVNNGIRDFSTSVTPKQSLCDGRWHRITVIRDSNVVQLDVDSEVNHVVGPLNPKPIDHREPVFVGGVPESLLTPRLAPSKPFTGCIRHFVIDGHPVSFSKAALVSGAVSINSCPAADYKDDDDK
notes: The α4 chain alone, as the non-crosslinked partner in the minor fraction of r-laminin 8; also called FLAG-tagged α4 chain
With B1, in assay [4], the binding result is recorded as “binds”.
